Test [1] concerns the target T1, human IL-12 (human, UniProt P29460 23-328; P29459 23-219).
T1 construct: Recombinant (Peprotech); FLAG-tagged IL-12 in the flow cytometry assays, biotinylated in the IL-12Rβ2 assay; also called hIL-12
T1 sequence 1: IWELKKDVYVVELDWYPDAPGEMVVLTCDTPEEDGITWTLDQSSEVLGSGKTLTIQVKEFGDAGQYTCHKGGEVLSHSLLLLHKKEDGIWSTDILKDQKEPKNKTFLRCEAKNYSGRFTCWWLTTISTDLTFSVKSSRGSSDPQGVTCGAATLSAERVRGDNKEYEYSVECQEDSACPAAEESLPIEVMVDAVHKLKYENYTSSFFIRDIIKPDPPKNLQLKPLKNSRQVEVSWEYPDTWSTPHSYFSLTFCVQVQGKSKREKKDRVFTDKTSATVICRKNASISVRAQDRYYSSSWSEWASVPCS
T1 sequence 2: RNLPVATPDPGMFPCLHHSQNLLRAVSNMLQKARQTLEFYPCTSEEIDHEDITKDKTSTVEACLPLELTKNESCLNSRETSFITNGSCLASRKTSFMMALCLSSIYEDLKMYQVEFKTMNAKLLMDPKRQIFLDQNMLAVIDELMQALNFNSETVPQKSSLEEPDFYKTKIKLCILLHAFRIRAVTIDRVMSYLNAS
The test is described as follows: ELISA, coated IL-12. The method, then: (§1) IL-12 (Peprotech), IL-23 (Ebioscience™), IL-12p40 (Ebioscience™) or IL-12p80 (Peprotech), was diluted to 1 μg/mL in carbonate coating buffer ([…] pH 9.6) and coated onto a 96 well plate (Nunc™, Maxisorp™) overnight at 4° C. The plate was then washed three times with wash buffer (0.01M PBS pH 7.2, 0.05% Tween-20) and then three times with 0.01M PBS pH 7.2. The wells were then blocked by adding 200 μl of blocking buffer (1% w/v BSA in 0.01 M PBS pH 7.2) to each well and incubating the plate at 25° C. for 1 hour. The antibody was diluted in antibody diluent (1% w/v BSA, 0.05% Tween-20 in 0.01M PBS pH 7.2) sufficient to generate a titration curve. The wells were incubated with the antibody for 1 hour at 25° C. The plate was then washed as previously described. Goat anti-human immunoglobulin G (H+L) antibody HRP conjugate (Zymed®) at 1:2000 in antibody diluent was used to detect bound primary antibody. Goat anti-murine immunoglobulin antibody HRP conjugate (Dako) at 1:2000 in antibody diluent was used to detect bound murine antibody. After incubation at 25° C. for 1 hour the plate was washed again as previously described. TMB substrate solution (Zymed®) was added to each well and the colour allowed to develop; the reaction was terminated by adding 1M HCl to the wells. The absorbance of each well was determined at 450 nm (ref. 620 nm).
(In general: ELISA stands for enzyme-linked immunosorbent assay.)

A further test addresses T2, human IL-23 (human, UniProt P29460 23-328; Q9NPF7 20-189).
T2 construct: Recombinant (Ebioscience); HIS-tagged in flow cytometry, biotinylated in some assays; also called hIL-23; rhIL-23
T2 sequence 1: T1 sequence 1
T2 sequence 2: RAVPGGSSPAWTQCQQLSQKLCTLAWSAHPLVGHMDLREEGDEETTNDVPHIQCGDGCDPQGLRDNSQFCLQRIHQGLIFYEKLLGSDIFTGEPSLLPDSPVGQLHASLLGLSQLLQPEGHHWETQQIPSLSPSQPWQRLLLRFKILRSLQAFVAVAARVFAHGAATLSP
Put plainly: ELISA, coated IL-23. The method, then: as §1

Test [2] has as its target T1, human IL-12. Put plainly: ELISA, coated IL-12. Put shortly: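 Each value is an absorbance measuring binding. Plates (Maxisorp) carried cytokine coated at 1 μg/mL in carbonate buffer pH 9.6 overnight at 4° C, were blocked with 1% BSA in PBS for 1 hour at 25° C, and received antibody titrations for 1 hour at 25° C. Detection used goat anti-human IgG or anti-murine immunoglobulin HRP at 1:2000 for 1 hour, then TMB stopped with 1M HCl, with absorbance taken at 450 nm (reference 620 nm).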
This is another data set of the same source.

Test [3] has as its target T1, human IL-12. The test is described as follows: SPR, single 81 nM analyte, scFv via FLAG. In general terms: In SPR one partner is held on a chip, and binding of the other changes the refractive index at the surface.

Residue numbers refer to the chain shown, from its start. Names and notes keep the numbering of the source. Where two headings read alike, the source gives them in different places.

B1: Antibody 175 (antibody, human IgG1, kappa, V domains shown)
VH: EVQLVQSGAEVKKPGATVKISCKASGYAFSDYYLHWVRQAPEKGLEWMGWIDPENGDTEYAPKFQGRVTITADTSTDTGYLELSSLRSEDTAVYYCAANKELRYFDVWGQGTLVTVSS
VL: DIQMTQSPSSVSASVGDRVTITCRASQSISINLHWYQQKPGKAPKLLIYFASQSISGVPSRFSGSGSGTDFSLTINSLQTEDFATYYCQQSNSFPLTFGGGTKVEIKR
Turning to B1, the binding result in the test with human IL-12 [1] and with human IL-23 was “binds” in each case.

B2: Antibody 179 (antibody, human IgG1, kappa)
heavy: not shown
light: DIQMTQSPSSVSASVGDRVTITCRASQSISINLHWYQQKPGKAPKLLIYFASQSISGVPSRFSGSGSGTDFSLTINSLQTEDFATYYCQQSNSFPLTFGGGTKVEIKRTVAAPSVFIFPPSDEQLKSGTASVVCLLNNFYPREAKVQWKVDNALQSGNSQESVTEQDSKDSTYSLSSTLTLSKADYEKHKVYACEVTHQGLSSPVTKSFNRGEC
In the case of B2, the binding result in the test with human IL-12 [1] and with human IL-23 was “binds” each time.

B3: Antibody 6 (antibody, human IgG1, kappa, V domains shown)
VH: EVQLQQSGADLVRSGASIKLSCTASGFNIKDYYMHWVKQRPEQGLEWIGWIDPENGDTEYAPKFQGKATMTADTSSNTAYLQLSSLTSEDTAVYYCNARKELRYFDVWGAGTTVTVSS
VL: DIVLTQSPATLSVTPGDSVSLSCRASQSISINLHWYQQKSHESPRLLIKFASQSISGIPSRFSGYGSGTDFTLSINSVETEDFGRYFCQQSNSWPLTFGAGTKLELKR
Turning to B3, the binding result in the test with human IL-12 [2] is “no binding (tested: not given)”.

B4: Antibody 199 (antibody, human IgG1, kappa, V domains shown)
VH: QVQLVQSGAEVKKPGASVKVSCKASGYTFTDYYLHWVRQAPGQGLEWMGWIDPENGDTEYAPKFQGRVTMTTDTSTSTAYMELRSLRSDDTAVYYCAANKELRYFDVWGQGTMVTVSS
VL: EIVMTQSPATLSVSPGERATLSCRASQSISINLHWYQQKPGQAPRLLIYFASQSISGIPARFSGSGSGTEFTLTISSLQSEDFAVYYCQQSNSFPLTFGGGTKVEIKR
With B4, the binding result in the test with human IL-12 [1] and with human IL-23 was “binds” throughout.

B5: Antibody 191 (antibody, human IgG1, kappa, V domains shown)
VH: B4 VH
VL: B1 VL
As to B5, the binding result in the test with human IL-12 [1] and with human IL-23 was “binds” throughout.

B6: Antibody 200 (antibody, human IgG1, kappa, V domains shown)
VH: B4 VH with F29L
VL: B4 VL
Consider B6, for which the binding result in the test with human IL-12 [1] and with human IL-23 was “binds” in each case.

B7: Antibody 201 (antibody, human IgG1, kappa, V domains shown)
VH: B4 VH with Y60S
VL: B4 VL
B7: the binding result with human IL-12 [1] and with human IL-23 was “binds” throughout.

B8: Antibody 203 (antibody, human IgG1, kappa, V domains shown)
VH: B4 VH with Y60H
VL: B4 VL
Consider B8, for which the binding result with human IL-12 [1] and with human IL-23 was “binds” in each case.

B9: Antibody 206 (antibody, human IgG1, kappa, V domains shown)
VH: B4 VH with T28A
VL: B4 VL
As for B9, the binding result in the test with human IL-12 [1] was “binds”.

B10: Antibody 202 (antibody, human IgG1, kappa, V domains shown)
VH: B4 VH with F29L, Y60S
VL: B4 VL
notes: not the murine PMA202
For the molecule B10, the binding result with human IL-12 [1] and with human IL-23 was “binds” in each case.

B11: Antibody 197 (antibody, human IgG1, kappa, V domains shown)
VH: B4 VH with Q43R
VL: B1 VL
On to B11, for which the binding result with human IL-12 [1] and in the test with human IL-23 was “binds” each time.

B12: Antibody 196 (antibody, human IgG1, kappa, V domains shown)
VH: B4 VH with K12E, R67G
VL: B1 VL
As for B12, the binding result in the test with human IL-12 [1] and in the test with human IL-23 was “binds” throughout.

B13: Antibody 204 (antibody, human IgG1, kappa, V domains shown)
VH: B4 VH with K12E, R67G
VL: B4 VL
notes: not the murine PMA204
Take B13: the binding result with human IL-12 [1] and with human IL-23 was “binds” in each case.

B14: scFv combo. # 3 (scFv)
scFv: QVQLVQSGAEVKKPGASVKVSCKASGYAFTDYYLHWVRQAPGQGLEWMGWIDPENGDTEYAPKFQGRVTMTTDTSTSTAYMELRSLRSDDTAVYYCNANKELRYFDVWGQGTMVTVSSGGGGSGGGGSGGGGSEIVMTQSPATLSVSPGERATLSCRAPQSISINLHWYQQKPGQAPRLLIYFASQSISGIPARFSGSGSGTEFTLTISSLQSEDFAVYYCQQSNSFPLTFGGGTKVEIKR
notes: scFv-80 with VH T28A; VL S26P; not shown: proprietary C-terminal FLAG tag
A word on the Kd: it is the free concentration of one partner at which half of the binding sites on the other are occupied at equilibrium, for simple one-to-one binding. As a reminder, the koff is the rate constant with which the complex falls apart. Higher therefore signals a short-lived complex. As usually defined, the kon is a measure of how fast the partners come together. For the molecule B14, in the test with human IL-12 [3], the Kd was determined as 0.029 nM, the koff was 4.5e-05 s⁻¹ and the kon amounted to 1.6e+06 M⁻¹ s⁻¹.

B15: scFv combo. # 16 (scFv)
scFv: B14 scFv with A28T, F29L, P159S, S185R
notes: scFv-80 with VH F29L; VL S52R; not shown: proprietary C-terminal FLAG tag
As for B15, in the test with human IL-12 [3], binding was put at a Kd of 0.05 nM, the dissociation rate constant (koff) was determined as 7.5e-05 s⁻¹ and the kon came out at 1.5e+06 M⁻¹ s⁻¹.

B16: scFv combo. # 4 (scFv)
scFv: B14 scFv with A28T, F29L
notes: scFv-80 with VH F29L; VL S26P; not shown: proprietary C-terminal FLAG tag
In the test with human IL-12 [3], B16 returned an equilibrium dissociation constant (Kd) of 0.027 nM, a koff of 4.8e-05 s⁻¹ and a kon of 1.8e+06 M⁻¹ s⁻¹.

B17: scFv combo. # 15 (scFv)
scFv: B14 scFv with A28T, F29L, P159S, S196F
notes: scFv-80 with VH F29L; VL S63F; not shown: proprietary C-terminal FLAG tag
In the test with human IL-12 [3], B17 displayed a Kd of 0.039 nM, a koff of 6.4e-05 s⁻¹ and a kon of 1.7e+06 M⁻¹ s⁻¹.

B18: scFv combo. # 5 (scFv)
scFv: B14 scFv with P159S, S196F
notes: scFv-80 with VH T28A; VL S63F; not shown: proprietary C-terminal FLAG tag
In the test with human IL-12 [3], B18 registered a Kd of 0.038 nM, a koff of 6.5e-05 s⁻¹ and a kon of 1.7e+06 M⁻¹ s⁻¹.
